What was measured:
[1] = target: human CD19 (human) (UniProt P15391); experiment: dSTORM, antibody titration on NALM-6 cells, antibody at 5 × 10^-3 µg/ml
[2] = target: human CD19 (human) (UniProt P15391); experiment: dSTORM, antibody titration on NALM-6 cells, antibody at 0.05 µg/ml
[3] = target: human CD19 (human) (UniProt P15391); experiment: dSTORM on NALM-6 cells, antibody at c≥2.5 µg/ml
[4] = target: human CD19 (human) (UniProt P15391); experiment: dSTORM, antibody titration on NALM-6 cells, antibody at 5 × 10^-5 µg/ml
[5] = target: human CD19 (human) (UniProt P15391); experiment: dSTORM, antibody titration on NALM-6 cells, antibody at 5 × 10^-4 µg/ml
[6] = target: human CD19 (human) (UniProt P15391); experiment: dSTORM, antibody titration on NALM-6 cells, antibody at 2.5 µg/ml
[7] = target: human CD19 (human) (UniProt P15391); experiment: dSTORM on NALM-6 cells, antibody at 5×10^-5 µg/ml
[8] = target: human CD19 (human) (UniProt P15391); experiment: dSTORM, antibody titration on NALM-6 cells, antibody at 10 µg/ml
[9] = target: human CD19 (human) (UniProt P15391); experiment: dSTORM, antibody titration on NALM-6 cells, antibody at 0.5 µg/ml
[10] = target: human CD19 (human) (UniProt P15391); experiment: dSTORM, antibody titration on NALM-6 cells, antibody at 5 µg/ml
[11] = target: human CD19 (human) (UniProt P15391); experiment: dSTORM, isotype control on NALM-6 cells (background), antibody at 5 × 10^-4 µg/ml
[12] = target: human CD19 (human) (UniProt P15391); experiment: dSTORM, isotype control on NALM-6 cells (background), antibody at 5 µg/ml
[13] = target: human CD19 (human) (UniProt P15391); experiment: dSTORM, isotype control on NALM-6 cells (background), antibody at 2.5 µg/ml
[14] = target: human CD19 (human) (UniProt P15391); experiment: dSTORM, isotype control on NALM-6 cells (background), antibody at 5 × 10^-3 µg/ml
[15] = target: human CD19 (human) (UniProt P15391); experiment: dSTORM, isotype control on NALM-6 cells (background), antibody at 5 × 10^-5 µg/ml
[16] = target: human CD19 (human) (UniProt P15391); experiment: dSTORM, isotype control on NALM-6 cells (background), antibody at 0.05 µg/ml
[17] = target: human CD19 (human) (UniProt P15391); experiment: dSTORM, isotype control on NALM-6 cells (background), antibody at 10 µg/ml
[18] = target: human CD19 (human) (UniProt P15391); experiment: dSTORM, isotype control on NALM-6 cells (background), antibody at 0.5 µg/ml

Sequence of UniProt P15391 (P15391 20-556): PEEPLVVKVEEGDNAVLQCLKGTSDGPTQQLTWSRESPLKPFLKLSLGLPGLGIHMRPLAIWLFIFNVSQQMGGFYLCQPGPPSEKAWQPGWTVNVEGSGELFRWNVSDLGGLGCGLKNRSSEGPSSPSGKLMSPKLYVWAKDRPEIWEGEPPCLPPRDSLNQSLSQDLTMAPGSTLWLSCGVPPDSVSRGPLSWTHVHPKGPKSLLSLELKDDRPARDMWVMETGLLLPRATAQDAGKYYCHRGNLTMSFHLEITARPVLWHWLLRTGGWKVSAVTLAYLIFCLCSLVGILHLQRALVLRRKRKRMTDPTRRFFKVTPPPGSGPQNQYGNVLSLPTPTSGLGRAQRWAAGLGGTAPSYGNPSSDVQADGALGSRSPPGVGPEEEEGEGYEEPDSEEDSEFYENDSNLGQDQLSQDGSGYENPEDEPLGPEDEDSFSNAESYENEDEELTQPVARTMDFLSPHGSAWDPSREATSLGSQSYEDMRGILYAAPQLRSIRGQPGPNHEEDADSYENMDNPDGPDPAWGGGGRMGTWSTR

Row | Substance | Molecules per cell (molecules per cell) [1] | Molecules per cell (molecules per cell) [2] | CD19 molecules/µm^2 under saturating conditions (CD19 molecules/µm^2) [3] | Molecules per cell (molecules per cell) [4] | Molecules per cell (molecules per cell) [5] | Molecules per cell (molecules per cell) [6] | CD19 molecules/µm^2 at the detection limit (CD19 molecules/µm^2) [7] | Molecules per cell (molecules per cell) [8] | Molecules per cell (molecules per cell) [9] | Molecules per cell (molecules per cell) [10] | Molecules per cell (molecules per cell) [11] | Molecules per cell (molecules per cell) [12] | Molecules per cell (molecules per cell) [13] | Molecules per cell (molecules per cell) [14] | Molecules per cell (molecules per cell) [15] | Molecules per cell (molecules per cell) [16] | Molecules per cell (molecules per cell) [17] | Molecules per cell (molecules per cell) [18]
1 | anti-CD19 antibody, clone HIB19, Alexa Fluor 647 conjugate (BioLegend) | 67 | 182 | 3.4 | 3.1 | 12 | 1780 | 0.006 | 1880 | 710 | 1860 | – | – | – | – | – | – | – | –
2 | AF647 isotype control antibody (BioLegend) | – | – | – | – | – | – | – | – | – | – | 0.8 | 85 | 50 | 1.3 | 0 | 7.1 | 72 | 44

From patent US20200209240A1
